Measurements: PMC6544321

Legend:
[1] = molecular target: A. thaliana Z-B dimer (AtH2A.Z/AtH2B dimer) (Arabidopsis thaliana); experiment: ITC; AtChz1b (253-463) with A. thaliana histone dimers in 0.25 M NaCl
[2] = molecular target: A. thaliana Z-B dimer (AtH2A.Z/AtH2B dimer) (Arabidopsis thaliana); experiment: ITC; AtChz1b (253-463) with A. thaliana histone dimers in 0.1 M NaCl
[3] = molecular target: single-chain H2A.Z-H2B with H2A.Z A57P/G98N (yeast); experiment: ITC; 0.2 M NaCl (Table 1); Swc2-Z or Chz1-M injected into single-chain histone dimers; otherwise as the ITC methods (25°C, 20 mM MES pH 6.0)
[4] = molecular target: yeast single chain H2A-H2B (yeast); experiment: as above
[5] = molecular target: yeast single-chain H2A.Z-H2B (yeast); experiment: as above
[6] = molecular target: single chain H2A-H2B with H2A P50A/N91G (yeast); experiment: as above

| Substance | Kd [1] [µM] | Kd [2] [µM] | Kd [3] [µM] | stoichiometry N [3] [sites] | stoichiometry N [4] [sites] | Kd [5] [µM] | stoichiometry N [5] [sites] | Kd [6] [µM] | stoichiometry N [6] [sites] |
| --- | --- | --- | --- | --- | --- | --- | --- | --- | --- |
| AtChz1b (residues 253–463) (domain or fragment) | 19.9 | 0.05 | – | – | – | – | – | – | – |
| Swc2-Z, the 1–136 segment of the Swc2 subunit of the SWR1 complex (domain or fragment) | – | – | 0.04 | 0.8 | 0.9 | 0.04 | 1.1 | 0.17 | 1 |
